Test: yeast display, Sf9 membrane polyspecificity reagent, FACS + sequencing; frameworks hold sequencing errors
Procedure, shortened: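 A nanobody's polyreactivity label depends on the gate it was sorted from. Yeast display cells were stained with 10% biotinylated, detergent-solubilized Sf9 membrane reagent for 1 hour at 4 °C, enriched on streptavidin microbeads and sorted by FACS. The low and high (top ~1%) gates were set on anti-HA fluorescence for expression and streptavidin fluorescence for reagent binding.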

Row | Sequence | polyreactivity (PSR sort gate)
1 | QVQLVESGGGLVQSRGSLRLSWAASGSTFTYNTMGWYRQAPGKERELVAAISSGGSTYYADSVKGRFTISRDNAKNTVFLQMNSLKPEDTAVYYCAATAQKDSRYGSRYYYWGQGTQVTVSS | high polyreactivity
2 | QVQLVESGGGLVQAGGSLRLSCAASGSIFSQNAMGWYRQAPGKERELVASITYSGGSTYYADSVKGRFTISRDNAKNTVYFQMNSLKPEDTEVYYCAADVRYSSRFYYWGQGTQVTVSS | high polyreactivity
3 | QVQLVESGGGLVQAGGSLRLSCAASGNTFIYYAMGWYRQAPGKERELVAAISRSGGSTYYADSVKGRFTISRDNAKNTVYLQMNSLKPEDTAVYYCAAEATKWIGVVTMDYWGQGTQVTVSS | high polyreactivity
4 | QVQLVESGGGLVQAGGSLRLSCAASGRIFGTYAMGWYIQAPGKERELVAGITWRTASTYYADSVKGRFTISRDNAKNTVYLQMNSLKPEDTAVYYCNADAWVWYYYYSYDYWGQGTQVTVSS | low polyreactivity
5 | QVQLVESGGGLVQAGGSLRLSCAASGLTFVSYAMGWSRQAPGQEREFVAAINRSGGSPYYADSVKGRFTISRDNAKTTVYLQMNSLKPEDTALYYCAARRNLAYYHSGYWGQGTQVTVSS | high polyreactivity
6 | QVQLVESGGGLVQAGGSLRLSCAASGIIISINAMGWYRQAPGKERELVAAISRSGGSTNYADSVKGRFTISRDNAKNTVYLQMNSLKPVDTAVDYCATVHRYSVWSHNYWGQGTQVTVSS | high polyreactivity
7 | QVQLVESGGGLVQAGGSLRLSCAASGRTFSVYAMGWYRQAPGKERELVAVIRGRGGRTYYADSVKGRFTISRDNAKNTVYLQMNSLKPEDTAVYYCNAVGQIVYGKQYDYWGQGTQVTVSS | high polyreactivity
8 | QVQLVESGGGLVQAGGSLRLSCAASGSILYFNAMGLYRQAPGKERELVATITSGGSTNYADSVKWRFTISRDNAKNTVYLQMNSQKPEDTAVYYSAADYSTRKADYWVQGTQVTVSS | low polyreactivity
9 | QVQLVESGGGLVQAGGSLRLSCAASGSIFQIYAMGWYRQAPGKERELVATISSGGRTTYADSVKGRFTISRDNAKNSVYLQMNSLKPEDTAVYYCAAKLEWLSHYYYWGQGTQVTVSS | low polyreactivity
10 | QVQLVESGGGLVQAGGSLRLSCAASGIIFKYYAMGWYRQAPGKERELVAAISSRSGRTYYADSVKGRFTISRDNAKNTVYLQMNSLKPEDTAVYYCNVQVQRSYPYGYWGQGTQVTVSS | high polyreactivity
11 | QVQLVESGGGLVQAGGSLRLSCAASGIIFGRYAMGWYRQATGTVRELVAASTRSGGRTYYADTVKGRFTISRDYAKNTVFVQMNSLKPEDTAVYYCSADASGHSYDYWGQGTQVTVSS | high polyreactivity
12 | QVQLVESGGGLVQSGGSLRLSCAASGSIFGSNAMGWYRQAPGKERELVAAISRSGTSTYYADSVKGRFTISRDNAKNTVDLQMTSLKPEDSAVYYSNTAQRYRVYRYDYWGQGTQVTVSS | high polyreactivity
13 | QVQLVESGGGLVQAGGSLRLSCAASGGIFFSYAMGWYRQAPGKERELVAAIRTNGGTTYYADSVKGRFTISRDNAKNTVYLQMNSLKPEDTAVYYCAALPGGYYDRGEYDYWGQGTQVSVSS | low polyreactivity
14 | QVQLQDSGGGLVQAGGSLRQNCETSGTIFVLWYMGWYRQAPGKERELVATINDGANTYYADSVKGRFTINRDNANSTVYMKMNSLIPEDTAVYYCAVYAIIVWGLGYWGQGTQVTVSS | high polyreactivity
15 | QVQLVESGGGLVQAGGSLRLSCAASGRTFGGYAMGWYRQAPGKERELVAAINYSGGTTYYADSVKGRFTISRDNAKNTVYLQMNSLKPEDTAVYYCAASDCYGLFYGGPTWWKGHDYWGQGTQVTVSS | high polyreactivity
16 | QVQLVESGGGLVQAGGSLRLSCAASGRTFYLYAMGWYRQAPGKEREFVAAISKRGGSTYYADSVKGRFTISRDNAKNTVYLQMNSLKPEDTAVYYCAAEVFRYRLNQTPTYRGDYWGQGTQVTVSS | high polyreactivity
17 | QVQLVESGGGLVQAGGSLSLSCAASGSNFSENTMGWYRQAPGKKRELVADITSGGSTNYADSVKGRFTISRDNAKNTVYLQMNSLKPEDTAVYYCAADYHGEYDYWGQGTLVTVSS | low polyreactivity
18 | QVQLVESGGGLVQAGGSLRLSCAASGFTFSRNAMGWYRQAPGKERELVAAIDSGGSTDYADSVKGRFTISRANAKKTVYLQMNSLKPEDTAVYYCAKASSATRYVQLRQDYDYWGQGTQVTVSS | low polyreactivity
19 | QVQLVESGGGLVQAGGSLRLSCAASGRIFYFNAMGWYRQAPGKERELVAAISGSGGDTYYADSVKGRFTISRDNAKNTVYLQMNSLNPEDTAVYYCAAEVYTWGQGTQVTVSS | low polyreactivity
20 | QVQLVESGGGLVQAGGSLRLSSAASGRIFRGNEMGWYRQAPGKEREFVAAISWGGGSTYYADSVKGRFTISRDNAKKTVYLQMNSLKPEDTAVYYCAAGSPYAYNYWGQGTQVTVSS | high polyreactivity
21 | QVQLVESGGGLVQAGGSLRLSCAASGSSFNSYAMGWYRQAPGKERELVASITRGGSTYYADSVKGRFTISRDNAKTTVYLQMNSLKPEDTAVYYCAARFTQHNYWAMDYRGQGTQVTVSS | high polyreactivity
22 | QVQLVESGGGLVQAGGSLRLSCAASGSTFNINVMGWYRQAPGKERELVASISTGDITYYADSVKGRFTISRDNAKNTVYLQMNSLKPEDTAVYYCAAESYTGKYSWVWKWYDYWGQGTQVTVSS | low polyreactivity

Row | Sequence | polyreactivity (PSR sort gate)
23 | QVQLVESGGGLVQAGGSLSLSCAASGSIFYVNTMGWYRQAHGKERELVADISSGDSTYYADSVKGRFTISRDNAKNTVYFQMNSLKPEDTAVYFCNADVYSWVSGKEGDYWGQGTQVTVSS | low polyreactivity
24 | QVQLVESGGGLVQAGGSLRLSCAASGSIFYGNTMGWYRQAPGKERELVAAIRSVGRTYYADSVKGRFTISRDNAKNTVYLQMNSLKPEDTAVYYCAADPRSYFTSEYWGQGTQVTVSS | high polyreactivity
25 | QVQLVESGGGLVQAGGSLRLSCAASGRIFFPYDMGWYRQAPGKERELVAAITNSGGRTYYADSVKGRFTISRDNAKNTVYLQMNSLKPEDTAVYYCAARYGSGGDYWGQGTQVTVSS | low polyreactivity
26 | QVQLVESGGGLVQAGGSLRLSCAASGRTIRSYAMGWYRQAPGKERELVAAITGSGGRTYYADSVKGRFTISRDNAKNTVYLQMNSLKPEDTAVYYCAARLRGSYDYWGQGTQVTVSS | high polyreactivity
27 | QVQLVESGGGLVQAGGSLRLSCAPSGGIYLYYVMGWYRQAPGKERELVADISGDDSTNYADSVKGRFTISRDNAKNTVYLQMNSLKPEDTAVYYCAAVPGLFYLPYEYWGQGTQVTVSS | low polyreactivity
28 | QVQLVESGGGLVQAGGSLRLSCAASGSTFSPNDMGWYRQAPGKERELVADNSNYADSVKGRFTISRDNAKNTVYLQMNSLKPEDTAVYYCAAEWRGDRYRLYVVSWWYDYWGQGTQVTVSS | low polyreactivity
29 | QDQLVESVGGLVQAGGSLRLSCAASGTISYAGPMGWYRKAPGKEREFVAGIGVCSNTNYADSVKGRYTIIRDNAKNTVYLQMNSLIPEDTAVYYCAVGGYAPLGRPYWGQGTQVTVSS | low polyreactivity
30 | QVQLVESGGGLVQAGGSLRLSCAASGYIFDDNAMGWYRQAPGKERELVATNYADSVKGRFTISRDNAKNTVYLQMNSLKPEDTAVYYCAKDVWQTYTDLDHWGQGTQVTVSS | low polyreactivity
31 | QVQLVESGGGLVQAGGSLRLSCAASGSTFKYYAMGWYRQAPGKERELVARISSGGNTKYADSVKGRFTISRDNAMNTVYLQMNSLKPEDTAVYYCAAGYPGVGYAYDYWGQGTQVTVSS | high polyreactivity
32 | QVQLVESGGGLVQAGGSLRLSCAASGSIFHWYAMGWYRQAPGKERELVAAISWSGGSTYYADSVKGRFTISRDNAKNTVYLQRNSLKPEDTAVYYCNKYIRYPFKRYGYWGQGTQVTVSS | high polyreactivity
33 | QVQLVESGGGLVQAGGRLRLSCAASGYTFKFNAMGWYRQAPGKETELVAGITRGGGTYADSVKGRFTISRDNAKNTVYLQMNSLKPDDTAVSYCASAWGAPSRFFSAFDYWGQGTQVTVSS | low polyreactivity
34 | QVQLVESGGGLVQAGGSLRLSCAASGSIFKKYAMGWYRQAPGKERELVAAIRSSGGSTYYADSVKGRFTISRDNAKNTVYLQMNSLKPEDTAVYYCAAYVPQGYKLYYWGQGTQVSVSS | high polyreactivity
35 | QVQLVESGGGLLQAGVSLRLSCAASGFIFSYNTMGWYRQPPGKEREFVAAITYSGGSTYYADSVKWRFTSSRHNAKNSVYLQMNTLKPEDTAVYYCAAPYPRGYFFGDSPKGYGGGYWGQGTQVTVSS | high polyreactivity
36 | QVQLVESGGGLVQAGGSLRLSSAASGRIFAGNAMGWYRQAPGKERELVAVISKGGGRTYYADSVKGRFTISRDNAKNTVYLQMNSLKPEDTAVYDCDAEGSYWFRRYGYWGQGTQVTVSS | high polyreactivity
37 | QVQLVESGGGLVQAGGSLRLSCAASGSIFSKYVMGWYRQAPGKEMELVASITSGGRTNYADSVKGRFTISRDNAKNTVYLQMNSLKPEDTAVYYCAARALKTWYRSGVDYWGQGTQVTVSS | low polyreactivity
38 | QVQLVESGGGLVQAVCSLRLICAASGLTFGGYSMGWYRQAPAKERELVAAISRSCGSTYYADSVKGRFTISRDNAKNTVFLQMNSLKPEDTAVYYCNAGRDTKYDYWGQGTQVTVSS | low polyreactivity
39 | QVQLVESGGGLVQAGGSLRLSCAASGSTFRVNAMGWYRQAPGKERELVAAISGSGSGTYYADSVKGRFTISRDNAKNTVYLQMNSLKPEDTAVYYCAKVPKSRGYVGGMDYWGQGTQVTVSS | low polyreactivity
40 | QVHLVESGGGLVQAGGSLRLSCAASGRTFHVYAMGWYRQAPGKEREFVAFISRRGGSTYYADSVKGRFTISRDNAKNTVYLQMNSLKPEDTAVYYCNAKYPSNYVVQDDYWGQGTQVTVSS | high polyreactivity
41 | QVQLVESRGGLVQAGGSLRLSCATSGRIFAKYAMGWYRQAPGKESELVAAITTTGRTYYADSVKGRFTISRDNAKNTVYLQMNSLKPEDTAVYYCAVGYHAPKVSTSDARYDYWGQGTQVTVSS | low polyreactivity
42 | QVQLVESGGGLVQAGGSLRLSCAASGSTFYFYAMGLFRQAPGKERELVAAITSSGGSTYYAESVKGRFTISRDNAKNTVYLQMISQKPEDTAVYYCATTYPQRYNGYDYWGQGTQVTVSS | low polyreactivity
43 | QVQLVESGGGLVQAGGILRLSCAASGRTFVLNAMGRYRQAPGKERELVAAITSGGSTYYADSVKGRFTISRDNAKNTVYLQMNMLKPEDTAVYYCAVTYKGDSSWPGDYWGQCTQVTVSS | low polyreactivity

— the nanobody polyreactivity screen of Harvey et al. (2022)
